Measured values from the nanobody polyreactivity screen of Harvey et al. (2022).

Test: yeast display, Sf9 membrane polyspecificity reagent, FACS + sequencing; frameworks hold sequencing errors
Outline: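 Polyreactivity labels are assigned by the sorting gate from which each nanobody was recovered. The gates were low and high (top ~1%), set on anti-HA fluorescence for expression and streptavidin fluorescence for reagent binding. Before sorting, galactose-induced (36–48 hours) yeast display cells were stained for 1 hour at 4 °C with 10% biotinylated, detergent-solubilized Sf9 membrane reagent.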

| Sequence | polyreactivity (PSR sort gate) |
| --- | --- |
| QVQLVESGGRIVQAGGSLRLRCAASGRTLLRYAMGWSRQAPGKERELVAAISSSGGRTYYADSVKGRFTISRDNEKNTVYLQMNSLKPEDTAVYYCAAKSSYVGHDYWGQGTQVTVSS | high polyreactivity |
| QVQLVESGGGLVQAGGSLRLSCAASGRTLFYYTMGWYRQAPGKERELVAAISSGDSTNYADSVKGRFTISRDNAKNTVYLQMNSLQPEDTAVYYCATQYLLDYKKTYRTYYSPYDYWGQGTQVTVSS | low polyreactivity |
| QVQLVESAGGLVQAGGSLRLSCAASGSTFSRYAMGWSRQAPGNERELVAAISSGGNTYDADSVKGRFTISRDNAKNTVYLQMNSLKPEDTPVYYCIADRYTWYPWTKCFYYWGQGTHVTVSS | high polyreactivity |
| QVQLVESGGGLVQAGGSLRLSCAASGSIFGGYAMGWYRQAPGKERELVAAITSSGGRTYYADSVKGRFTISRDNAKNTVYLQMNSLKPEDTAVYYCAASPNYYYYYPMYYWGQGTQVTVSS | high polyreactivity |
| QVQLVESGGGLDQAGGSLRLSCADSGYTFRAYAMGWYRQAPGKERELVAAITRSGTSTYYADSVKGRFTISRDNAKNTVYLQMNSLKPEDTAVYYCNVDVYLYAKEYDYWGQGTQVTVSS | high polyreactivity |
| QVQLVESGGGLVQAGGSLRLSCAASGLIFPVYDMAWYRQAPGKERELVAAITRSGDSTYYADSVKGRFTISRDNAKNTVYLQMNSLKPEDSGVYYCAAQPGTASYAGDGDSWGKGTQVTVSS | low polyreactivity |
| QVQLVESGGGLVQAGGSLLLSCAPSGRTFPLNAMGWSRQAPGKERELVAAITWSGGRTYYADSVKGRFTISRDNAKNTVYLQMNSLKPEDTAVYYCAAKRTTWKIQSGYDYWGKGTQVTVSS | low polyreactivity |
| QVQLVESGGRLVQAGGSLRLSCAASGYTIDPYDMGWYRQAPGKERELVASISWSGGDTYYADSVKGRFTISRDNAKNTVYLQMNSLKPEDTAVYYCAADPGYPANRTEWSDFDYWGQGTQVTVSS | low polyreactivity |
| QVQLVESGGGLVQAGGSLRLSCAASGRTFSYYTMGWSRQAPGKERQLVARISNRGTNTYYADSVKGRFTISRDNAKNTVYLQMNSLIPEDTGVYYCAKYYYTSIVGYDSWGQGTQVTVSS | low polyreactivity |
| QVQLVESGGGLVQAGGSLRLSCAASGFIFPSNSMGWYRQAPGKEREFVAAISSRGGSTTYADSVKGRFTISRDYAKNTVYLQMNSLKPEDTAVYYCARDWYYYPQYRQRYYYWGQGTQVTVSS | high polyreactivity |
| QVQLVESGGGLVQAGGSLRLSCAASGRIFYPYAMGWYRQAPGKERELVAAITSDGGSTYYADSVKGRFTISRDNAKNTVYLQMNSLKPEDTAVYYCAAYEAYKANVGGGYYYWGQGTQVTVSS | low polyreactivity |
| QVQLVESGGCLVPAGGSLRLSCAASGRTFYYNAMGWYRQAPGKERELVAAISSSGGRTYYADSVKGRFTISRDNGKNTVYLQMNSLKPEDTAVFYCAALTNARGFDYWGQGTQVTVSS | high polyreactivity |
| QVQLVESGGGLVQAGGSLRLSCAASGYIFRSYAMGWYRQAPGKERELVATISWIGGGTSYADSVKGRFTISRDNAKNTVYLHMNSLIPVDTAVYYCAAGPWAYGRRHAYYSRSFDYWGQGTQVTVSS | high polyreactivity |
| QVQHVESGGRLVQAGGSLRLSCAASGITFRVYALGWYRQPRGKERELVAAITSSGGSTYYADSVKGRFTISRDNAKNTVYLQMNSLKPEHTAVDYCAAFSAVDSPLDYWGQGTQVTVSS | low polyreactivity |
| QVQLVESGGGLVQAGGSLRLSCAASGLTFAYYAMGWYRQAPGKERELVAAITSSGTSTYYADSVKGRFTISRDNAKNTVYLQMNSQKPEDTAVYYCNARVYGYRYTYRMDYWGQGTQVTVSS | high polyreactivity |
| QVQLVESGGGLDQAGGSLRLSCAASGRTFFDYAMGWYRQATGKERELVAAINWSGGRTYYADSVKGRFTISRDNAKNTVYLQMISLKPEDTAVYYCAAIYGSLYPTGQTRRDYYSWGQGTKVTVSS | low polyreactivity |
| QVKLVESGGGLVQAGGSLRLSCPASGSTFVLNAMGWYRQAPGKERELVAAITWSGASTYYADSVKGRFTISRDNAKNTVYLQMNSLKPEDTAVYYCANDIPTDYKDVNYWGQGTQVTVSS | low polyreactivity |
| QVQHVESVGGLVQAGGSLRLSCAASGSIFDDYAMGWYRPAPGKERELVAAISSSGTSTYYADSVKGRFTISRDNAKNTVYLQMNSLKPEDTAVYYCAARSAILKSGYLMDYWGQGTQVTVSS | low polyreactivity |
| QVQLVESGGGLVQAGGSLRLSCAASGLTFAFYAMGWYRQAPGKEMELVARIRTSAITYYADSVKGSFTISRDNAKNTVYLQMNSLKPEDTAVYYCAAEEGRVFSGGYDYWGQGTQVTVSS | high polyreactivity |
| QVHLVESGGGLVQAGGSLRISCAASGSSFSIYAMGSYRQAPGKERELVAAITCTVGSTYYADSVKGRFTISRDIAKYTVYLPLNSLKPEDTAVYYFAARQVNYDYDFWGQGTQVTVSS | low polyreactivity |

| Sequence | polyreactivity (PSR sort gate) |
| --- | --- |
| QVQLVESGGGLVQAGGRLRISCAATGSTSVRNAMGWSRQGPGKESELVAGISRGGGITYYADSVKGRFTISRDNAKNTVYLQMNILKTEDTAVYYCAAVYYVDYPDGNYEYWGQGTQVTVSS | high polyreactivity |
| QVQLQESGGGLLQAGGSLRLSCAASGNIFLSIFMGWYRQAPGKEREFVAGIGSGTNTNYADSVKGRFTISRDNAKNTVYLQMNSLKPEDTAGYYSAAGRFGLYYHGYWGLGTQVTVSS | high polyreactivity |
| QVQLVESGGGLVQAGGSLRLSCAASGSTFGAYAMGWYRQAPGKERELVAAISSSGGRTYYADSVKGRFTISRDNAKNTVYLQMNSLKPEDTAVYYCATYYRHYDLLYYYWGQGTQVTVSS | high polyreactivity |
| QVQLEESGGGIVQAGGSLRLSSAASGRIYTPNAMGSYRQAPGKERELVAAITWSGGSTYYADSVKGRFTISRDNAKNTVYLQMNRLKPEDTAVYYCAVRYSRNLMYYWGQATQVTVSS | high polyreactivity |
| QVQLVESGGGLVQAGGSLRLSCAASGSTFGAYAMGWYRQAPGKEREFVAGISVRGGSTYYADSVKGRFTISRDNAKNTVYLQMNSLKPEDTAVYYCAARRVDTRVHVRYRYYYWGQGTQVTVSS | high polyreactivity |
| QVQLVESGGGLVQAGGSLRLSCAASGSIYTHYAMGWYRQAPRKQRELVAAISRRGGSTYYADSVKGRFTISRDNAKNTVYLPMHSLKPEDTAVYYCAKSPDTAKEYDYWGQGTQVTVSS | high polyreactivity |
| QVQLVDSGGGLVQAGGSLRLSCAASGLTFQWYTMGWYRPAPGKERELVAAISSRGGSTYYADSVKGRFTISRDNAKNTVYLQMNSLKPEDTAVYYCAAVSGWEHRYDYWGQGTLVTVSS | high polyreactivity |
| QVQLVESGGGLVQAGGSLRLSCAASGSTFPVYVMGWYRPAPGKERELVAAITRSGGSTYYADSVKGRFTISRDNAKNTVYLQMNSLKPEDTAVYYCNKDVWDGYDWPEFDYWGQGTQVTVSS | low polyreactivity |
| QVQLVESGGGLVQAGGSLRLSCAASGIIFATYAMGWYRQAPGKERELVAAISSGGRTYYADSVKGRFTISRDNAKNTVYFQMNSLKPEDTAVYYCAAKSGGRSSLYNYWGQGTQVTVSS | high polyreactivity |
| QVQLVESGGGLVLAGGSLRLSCAASGSTFARNAMGWYRHAPGKERELVAAISWNGGRTYYADSVKGRFTISRDNAKNTVYLQMNSLKPEDTAVYYCAAKYVKDYWSDFDYWGQGTQVTVSS | high polyreactivity |
| QVQLVESGGGLVQAGRSLRLSCAASGFIFKSYAMGWYRQAPAKERELVAAISFSGGSTYYADSVKGLFTISRDNAKNTVYLQMNSLKPEDSAVYYCAADPRNGEYYYWGQGTQVTVSS | high polyreactivity |
| QVQLVESGGGLVQAGGSLRLSCAASGSTFSEYVMGWYRQAPGKERELVAVITTGTSTNYADSVKGRFTISRDNAKNTVYLQMNSLKPEDTAVYYCNAEYLYGVRYHDYWNDFDYWGQGTQVTVSS | low polyreactivity |
| QVQLVQSGRGLVHAGCSLRLSCAASGRIYAGNAMGLYRQPPGKERELFATITSGGSTYYADSVKGRFTISRDNAKNTVYLQMNSLKPEDTAVYYCNAVNYWVKSRFSLTWEFAVVYWGQGTQVTVSS | low polyreactivity |
| QDQLVETLGGLVQAGASLRLSCAASGSIFGNNAMVWYRQEPGKERELVAAISGTGGTTYADSVKGRFTISRDNAKNTVYLQMNSLKPEDTAVYYWALRVWVRDYPFGYARYGYWGQGTQVTVSS | low polyreactivity |
| QVQLVESGGGLVQAGGSLRLSCAASGRISGLYAMGWYRQAPGKERELVAAITTSADRTYYADSVKGRFTISRDNAKNTVYLQMNSLKPEDTAVYYCAADSSRPRMYYWGQGTQVTVSS | low polyreactivity |
| QVQLVESGGGLVQAGGSLRISCAASGSTSTGMTWDGIDRRLGRKELVAGIRSAGSTNYADSVKGRFTISRDNAKNTVYLQMNSLKPEDTAGYYCAKDYRWVWRKYGYWGQGTQVTLSS | low polyreactivity |
| QVQLHESGGGLVQAGGSLRLSCAASGTISYAGPMGWYRQAPGKEREVVAGIGVGSNTIYADSVKGRYTIIRDNAKKTVYLQMKSLKPEDTEVYYCAVGGYAPLGRPYWGQGTQVTVSS | low polyreactivity |
| QVHLVESGGGLVQAGGSLRLSCAASGGTFSVYGMGWYRPAPGKERELVAAITVTGGRTYYADSVKGRFTISRDNAKNTVYLQMNSLKPVDSAVYYCNTLPWSRTKRDYWGQGTQVTVSS | low polyreactivity |
| QVQLVESGGGLVQAGGSLRLSCAASGSIFLHNAMGWYRQAPGKERELVAAISGTGGRTYYADSVKGRFTISRDNAKNTVYLQMNSLKPEDTAVYYCAKTLRDPYRYDYWGQGTQVTVSS | high polyreactivity |
| QVQLVESGGGLVQAGGSLRLSCAASGRIFSYNARGWYRQAPGKERELVAAISSDGSTYYADSVKGRFTISRDNAKNTVYLQMNSRKPEDTAVYYCAARQVLWFDYTTAQVGSYKVNSWGQGTQVTVSS | low polyreactivity |
